Reference: patent publication US20100239597A1 (NORTHWESTERN UNIVERSITY, published 2010)

T1: biotin-Aβ1-20 (UniProt P05067 672-691, biotin (site not stated))
T1 construct: domain: Aβ1-20; Monomeric Aβ fragment used as BIACORE antigen; also called biotinylated-Aβ1-20
T1 peptide (looked up): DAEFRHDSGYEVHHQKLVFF


Legend:
[1] = molecular target: T2, biotinylated ADDL (bADDL) (UniProt P05067 672-713, N-terminal biotin); experiment: BIACORE, Fab against bADDL
T2 construct: domain: Aβ1-42; Panning and ELISA speak of 10% biotinylated ADDL; also called bADDLs; high molecular weight bADDL

biotin-Aβ1-20 = molecular target: T1, biotin-Aβ1-20; experiment: BIACORE, Fab against biotinylated-Aβ1-20
[2] = molecular target: T2, biotinylated ADDL (bADDL); experiment: BIACORE, bADDL as antigen; Fab
[3] = molecular target: T2, biotinylated ADDL (bADDL); experiment: BIACORE, bADDL as antigen; IgG1#1
[4] = molecular target: T2, biotinylated ADDL (bADDL); experiment: BIACORE, bADDL as antigen; IgG1#2

| Binder | Kd [1] | Kd (biotin-Aβ1-20) | Kd [2] | Kd [3] | other results |
| --- | --- | --- | --- | --- | --- |
| 4a-C9 Fab (Fab, V domains shown) VH: QVTLKESGPALVKPTQTLTLTCTLSGFSLSTSGMGVGWIRQPPGKALEWLAHIWWDDDKSYNPSLKSRLTISKDTSKNQVVLTMTNMDPVDTATYYCARRQLGQAGHDAMDYWGQGTTVTVSS VL: DVVMTQSPLSLPVTPGEPASISCRSSQSILHSNGNTYLEWYLQKPGQSPQLLIYKVSNRFSGVPDRFSGSGSGTDFTLKISRVEAEDVGVYYCLQTTRVPLTFGQGTKLEIKR | 8.43 nM | 2.46 nM | – | – | – |
| 4b-A12 Fab (Fab, V domains shown) VH: QVTLKESGPALVKPTQTLTLTCTLSGFSLSTSGMGVGWIRQPPGKALEWLAHIWWDDDKSYNPSLKSRLTISKDTSKNQVVLTMTNMDPVDTATYYCARRQLGPEPQDAMDYWGQGTTVTVSS VL: DVVMTQSPLSLPVTPGEPASISCRSSQSILHSNGNTYLEWYLQKPGQSPQLLIYKVSNRFSGVPDRFSGSGSGTDFTLKISRVEAEDVGVYYCLQTTRVPLTFGQGTKLEIKR | 154 nM | 10.1 nM | – | – | – |
| 20C2-7A Fab (Fab, V domains shown) VH: QVTLKESGPALVKPTQTLTLTCTFSGFSLSTSGMGVGWIRQPPGKALEWLAHIWWDDDKSYNPSLKSRLTISKDTSKNQVVLTMTNMDPVDTATYYCARRQLGLRSIDAMDYWGQGTTVTVSS VL: DVVMTQSPLSLPVTPGEPASISCRSSQSILHSNGNTYLEWYLQKPGQSPQLLIYKVSNRFSGVPDRFSGSGSGTDFTLKISRVEAEDVGVYYCLNSTTVPLTFGQGTKLEIKR | – | – | 435 nM | – | – |
| 4b-B10 Fab (Fab, V domains shown) VH: QVTLKESGPALVKPTQTLTLTCTLSGFSLSTSGMGVGWIRQPPGKALEWLAHIWWDDDKSYNPSLKSRLTISKDTSKNQVVLTMTNMDPVDTATYYCARRQLGAHWLDAMDYWGQGTTVTVSS VL: DVVMTQSPLSLPVTPGEPASISCRSSQSILHSNGNTYLEWYLQKPGQSPQLLIYKVSNRFSGVPDRFSGSGSGTDFTLKISRVEAEDVGVYYCLQTTRVPLTFGQGTKLEIKR | 62.8 nM | 7.43 nM | – | – | – |
| 20C2-9A Fab (Fab, V domains shown) VH: QVTLKESGPALVKPTQTLTLTCTFSGFSLSTSGMGVGWIRQPPGKALEWLAHIWWDDDKSYNPSLKSRLTISKDTSKNQVVLTMTNMDPVDTATYYCARRQLGLRSIDAMDYWGQGTTVTVSS VL: DVVMTQSPLSLPVTPGEPASISCRSSQSILHSNGNTYLEWYLQKPGQSPQLLIYKVSNRFSGVPDRFSGSGSGTDFTLKISRVEAEDVGVYYCVQTSLVPLTFGQGTKLEIKR | – | – | 40 nM | – | – |
| 20C2-8A Fab (Fab, V domains shown) VH: QVTLKESGPALVKPTQTLTLTCTFSGFSLSTSGMGVGWIRQPPGKALEWLAHIWWDDDKSYNPSLKSRLTISKDTSKNQVVLTMTNMDPVDTATYYCARRQLGLRSIDAMDYWGQGTTVTVSS VL: DVVMTQSPLSLPVTPGEPASISCRSSQSILHSNGNTYLEWYLQKPGQSPQLLIYKVSNRFSGVPDRFSGSGSGTDFTLKISRVEAEDVGVYYCLQTTRVPLTFGQGTKLEIKR | – | – | 13 nM | – | – |
| 20C2-13A Fab (Fab, V domains shown) VH: QVTLKESGPALVKPTQTLTLTCTFSGFSLSTSGMGVGWIRQPPGKALEWLAHIWWDDDKSYNPSLKSRLTISKDTSKNQVVLTMTNMDPVDTATYYCARRQLGLRSIDAMDYWGQGTTVTVSS VL: DVVMTQSPLSLPVTPGEPASISCRSSQSILHSNGNTYLEWYLQKPGQSPQLLIYKVSNRFSGVPDRFSGSGSGTDFTLKISRVEAEDVGVYYCLQTSNVPLTFGQGTKLEIKR | – | – | 567 nM | – | – |
| 20C2-12A Fab (Fab, V domains shown) VH: QVTLKESGPALVKPTQTLTLTCTFSGFSLSTSGMGVGWIRQPPGKALEWLAHIWWDDDKSYNPSLKSRLTISKDTSKNQVVLTMTNMDPVDTATYYCARRQLGLRSIDAMDYWGQGTTVTVSS VL: DVVMTQSPLSLPVTPGEPASISCRSSQSILHSNGNTYLEWYLQKPGQSPQLLIYKVSNRFSGVPDRFSGSGSGTDFTLKISRVEAEDVGVYYCLQSSLVPLTFGQGTKLEIKR | – | – | 238 nM | – | – |
| 4a-E10 Fab (Fab, V domains shown) VH: QVTLKESGPALVKPTQTLTLTCTLSGFSLSTSGMGVGWIRQPPGKALEWLAHIWWDDDKSYNPSLKSRLTISKDTSKNQVVLTMTNMDPVDTATYYCARRQLGFQSTDAMDYWGQGTTVTVSS VL: DVVMTQSPLSLPVTPGEPASISCRSSQSILHSNGNTYLEWYLQKPGQSPQLLIYKVSNRFSGVPDRFSGSGSGTDFTLKISRVEAEDVGVYYCLQTTRVPLTFGQGTKLEIKR | 18.5 nM | 3.6 nM | – | – | – |
| 20C2-1A Fab (Fab, V domains shown) VH: QVTLKESGPALVKPTQTLTLTCTFSGFSLSTSGMGVGWIRQPPGKALEWLAHIWWDDDKSYNPSLKSRLTISKDTSKNQVVLTMTNMDPVDTATYYCARRQLGLRSIDAMDYWGQGTTVTVSS VL: DVVMTQSPLSLPVTPGEPASISCRSSQSILHSNGNTYLEWYLQKPGQSPQLLIYKVSNRFSGVPDRFSGSGSGTDFTLKISRVEAEDVGVYYCFQASRVPLTFGQGTKLEIKR | – | – | 85 nM | – | – |
| 20C2-18A Fab (Fab, V domains shown) VH: QVTLKESGPALVKPTQTLTLTCTFSGFSLSTSGMGVGWIRQPPGKALEWLAHIWWDDDKSYNPSLKSRLTISKDTSKNQVVLTMTNMDPVDTATYYCARRQLGLRSIDAMDYWGQGTTVTVSS VL: DVVMTQSPLSLPVTPGEPASISCRSSQSILHSNGNTYLEWYLQKPGQSPQLLIYKVSNRFSGVPDRFSGSGSGTDFTLKISRVEAEDVGVYYCMQSSFVPLTFGQGTKLEIKR | – | – | 85 nM | – | – |
| 4b-D4 Fab (Fab, V domains shown) VH: QVTLKESGPALVKPTQTLTLTCTLSGFSLSTSGMGVGWIRQPPGKALEWLAHIWWDDDKSYNPSLKSRLTISKDTSKNQVVLTMTNMDPVDTATYYCARRQLGMATPDAMDYWGQGTTVTVSS VL: DVVMTQSPLSLPVTPGEPASISCRSSQSILHSNGNTYLEWYLQKPGQSPQLLIYKVSNRFSGVPDRFSGSGSGTDFTLKISRVEAEDVGVYYCLQTTRVPLTFGQGTKLEIKR | 18.6 nM | 4.87 nM | – | – | – |
| 4a-D5 Fab (Fab, V domains shown) VH: QVTLKESGPALVKPTQTLTLTCTLSGFSLSTSGMGVGWIRQPPGKALEWLAHIWWDDDKSYNPSLKSRLTISKDTSKNQVVLTMTNMDPVDTATYYCARRQLGDNVADAMDYWGQGTTVTVSS VL: DVVMTQSPLSLPVTPGEPASISCRSSQSILHSNGNTYLEWYLQKPGQSPQLLIYKVSNRFSGVPDRFSGSGSGTDFTLKISRVEAEDVGVYYCLQTTRVPLTFGQGTKLEIKR | 1.17 nM | 3.91 nM | – | – | – |
| 20C2-12A IgG1 (antibody, V domains shown, also called 4P1-32) VH: QVTLKESGPALVKPTQTLTLTCTFSGFSLSTSGMGVGWIRQPPGKALEWLAHIWWDDDKSYNPSLKSRLTISKDTSKNQVVLTMTNMDPVDTATYYCARRQLGLRSIDAMDYWGQGTTVTVSS VL: DVVMTQSPLSLPVTPGEPASISCRSSQSILHSNGNTYLEWYLQKPGQSPQLLIYKVSNRFSGVPDRFSGSGSGTDFTLKISRVEAEDVGVYYCLQSSLVPLTFGQGTKLEIK | – | – | – | 0.015 nM | – |
| 20C2-9A IgG1 (antibody, V domains shown, also called SJ-p2-51) VH: QVTLKESGPALVKPTQTLTLTCTFSGFSLSTSGMGVGWIRQPPGKALEWLAHIWWDDDKSYNPSLKSRLTISKDTSKNQVVLTMTNMDPVDTATYYCARRQLGLRSIDAMDYWGQGTTVTVSS VL: DVVMTQSPLSLPVTPGEPASISCRSSQSILHSNGNTYLEWYLQKPGQSPQLLIYKVSNRFSGVPDRFSGSGSGTDFTLKISRVEAEDVGVYYCVQTSLVPLTFGQGTKLEIK | – | – | – | – | Kd [4]: 0.002 nM |
| 20C2-18A IgG1 (antibody, V domains shown, also called SJ-p1-9M) VH: QVTLKESGPALVKPTQTLTLTCTFSGFSLSTSGMGVGWIRQPPGKALEWLAHIWWDDDKSYNPSLKSRLTISKDTSKNQVVLTMTNMDPVDTATYYCARRQLGLRSIDAMDYWGQGTTVTVSS VL: DVVMTQSPLSLPVTPGEPASISCRSSQSILHSNGNTYLEWYLQKPGQSPQLLIYKVSNRFSGVPDRFSGSGSGTDFTLKISRVEAEDVGVYYCMQSSFVPLTFGQGTKLEIK | – | – | – | 0.149 nM | – |
| 20C2-23A IgG1 (antibody, V domains shown, also called 4P1-40) VH: QVTLKESGPALVKPTQTLTLTCTFSGFSLSTSGMGVGWIRQPPGKALEWLAHIWWDDDKSYNPSLKSRLTISKDTSKNQVVLTMTNMDPVDTATYYCARRQLGLRSIDAMDYWGQGTTVTVSS VL: DVVMTQSPLSLPVTPGEPASISCRSSQSILHSNGNTYLEWYLQKPGQSPQLLIYKVSNRFSGVPDRFSGSGSGTDFTLKISRVEAEDVGVYYCHQSSKVPLTFGQGTKLEIK | – | – | – | 0.085 nM | Kd [4]: 0.066 nM |
| 20C2-10A IgG1 (antibody, V domains shown, also called SJ-p3-33) VH: QVTLKESGPALVKPTQTLTLTCTFSGFSLSTSGMGVGWIRQPPGKALEWLAHIWWDDDKSYNPSLKSRLTISKDTSKNQVVLTMTNMDPVDTATYYCARRQLGLRSIDAMDYWGQGTTVTVSS VL: DVVMTQSPLSLPVTPGEPASISCRSSQSILHSNGNTYLEWYLQKPGQSPQLLIYKVSNRFSGVPDRFSGSGSGTDFTLKISRVEAEDVGVYYCFQGSRLPVSFGQGTKLEIK | – | – | – | 7.7 nM | – |
| 20C2-13A IgG1 (antibody, V domains shown, also called 4p1-20; 4P1-20) VH: QVTLKESGPALVKPTQTLTLTCTFSGFSLSTSGMGVGWIRQPPGKALEWLAHIWWDDDKSYNPSLKSRLTISKDTSKNQVVLTMTNMDPVDTATYYCARRQLGLRSIDAMDYWGQGTTVTVSS VL: DVVMTQSPLSLPVTPGEPASISCRSSQSILHSNGNTYLEWYLQKPGQSPQLLIYKVSNRFSGVPDRFSGSGSGTDFTLKISRVEAEDVGVYYCLQTSNVPLTFGQGTKLEIK | – | – | – | 0.764 nM | – |
| 20C2-20A IgG1 (antibody, V domains shown, also called SJ-p3-15) VH: QVTLKESGPALVKPTQTLTLTCTFSGFSLSTSGMGVGWIRQPPGKALEWLAHIWWDDDKSYNPSLKSRLTISKDTSKNQVVLTMTNMDPVDTATYYCARRQLGLRSIDAMDYWGQGTTVTVSS VL: DVVMTQSPLSLPVTPGEPASISCRSSQSILHSNGNTYLEWYLQKPGQSPQLLIYKVSNRFSGVPDRFSGSGSGTDFTLKISRVEAEDVGVYYCFQGSLFPPVFGQGTKLEIK | – | – | – | 6.9 nM | – |
